According to patent US12320801B2, “Methods to spatially profile protease activity in tissue and sections” (Massachusetts Institute of Technology, priority 2017, dated 2025):
Read-outs that look alike come from different tables or passages of the source. Values belong to the molecule of their own block, whether it stands above or below them. Non-standard residues stand in square brackets, D forms with d. Primed or numbered codes have the meaning given here. No end group written: not given here. *: point of attachment. 5FAM = O=C1OC2(c3ccc(O)cc3Oc3cc(O)ccc32)c2ccc(C(=O)*)cc21; CPQ2 = quencher on the Lys side chain; PEG2′ = polyethylene glycol linker

Tests used:
[1] = molecular target: T1, MMP9 (Homo sapiens, UniProt P14780); test: In vitro recombinant protease assay: cleavage of nanoparticle-presented FRET substrate by MMP9; type: biochemical; conditions: 6 μM substrate
T1 construct: purchased Enzo Life Sciences
Protocol: In some embodiments, surface presentation of peptide substrates allows tuning of specificity between on- and off-target proteolytic cleavage rates of the substrate (e.g., MMP9 substrate). The cleavage kinetics of an MMP9 peptide substrate (PLGVRGK; SEQ ID NO: 15), flanked by a fluorescence resonance energy transfer (FRET) pair, at varying distances from the nanoparticle core (FIG. 3A) were tested. For this substrate, the rate of cleavage by MMP9 increased with increasing presentation distance (tether length) for all the substrate concentrations tested (0.5, 1.0, 2.0, 4.0 and 6.0 μM); as an example, cleavage velocity (V) increased from 0.24 to 0.96 nM s^−1 at 6 μM (FIG. 3B). Unexpectedly, this phenomenon was not generalizable across enzymes. For example, cleavage rates by the serine protease, thrombin, decreased with increasing presentation distance when the same substrate was tested (e.g., V at 6 μM of substrate decreased from 0.29 to 0.01 nM s^−1; FIG. 3C). Nor was it generalizable across substrates. […]
Nanoparticles coupled with intramolecularly quenched peptide substrates were reacted with recombinant proteases to identify cleavage velocities. […] (SpectroMax Gemini EM microplate reader). Michaelis-Menten constants were determined by assessing initial cleavage velocities at different substrate concentrations (Prism 5.0, GraphPad). […]

[2] = molecular target: T2, thrombin (Homo sapiens, UniProt P00734); test: In vitro recombinant protease assay: cleavage of nanoparticle-presented FRET substrate by thrombin; type: biochemical; conditions: for cleavage velocity (V) by thrombin: 6 μM substrate
T2 construct: purchased Haematologic Technologies
Protocol: In some embodiments, surface presentation of peptide substrates allows tuning of specificity between on- and off-target proteolytic cleavage rates of the substrate (e.g., MMP9 substrate). The cleavage kinetics of an MMP9 peptide substrate (PLGVRGK; SEQ ID NO: 15), flanked by a fluorescence resonance energy transfer (FRET) pair, at varying distances from the nanoparticle core (FIG. 3A) were tested. For this substrate, the rate of cleavage by MMP9 increased with increasing presentation distance (tether length) for all the substrate concentrations tested (0.5, 1.0, 2.0, 4.0 and 6.0 μM); as an example, cleavage velocity (V) increased from 0.24 to 0.96 nM s^−1 at 6 μM (FIG. 3B). Unexpectedly, this phenomenon was not generalizable across enzymes. For example, cleavage rates by the serine protease, thrombin, decreased with increasing presentation distance when the same substrate was tested (e.g., V at 6 μM of substrate decreased from 0.29 to 0.01 nM s^−1; FIG. 3C). Nor was it generalizable across substrates. […] The presentation of the MMP9 substrate on the ABNs described in this example exploited the increased on-target and decreased off-target protease cleavage that occurs for long tether lengths.
Nanoparticles coupled with intramolecularly quenched peptide substrates were reacted with recombinant proteases to identify cleavage velocities. NPs were mixed with 1% (w/v) BSA (Sigma) and incubated with recombinant proteases (MMP-9, Enzo Life Sciences; thrombin, Haematologic Technologies) in a final volume of 50 μl in enzyme-specific buffers (MMP9 buffer: 50 mM Tris, 150 mM NaCl, 5 mM CaCl2), 1 μM ZnCl2, pH 7.5; thrombin: PBS) in a 384-well plate for time-lapse fluorimetry to measure dequenching at 37° C. (SpectroMax Gemini EM microplate reader). Michaelis-Menten constants were determined by assessing initial cleavage velocities at different substrate concentrations (Prism 5.0, GraphPad). The final MMP-9 concentration was 100 nM and the final thrombin concentration was 7 nM.

[3] = molecular target: mouse MMP9 (Mus musculus, UniProt P41245); test: Cleavage of MMP9 substrate by mouse MMP9; type: biochemical
Excerpt: FIGS. 14A-14B show iRGD ABNz characterization.
Receptor expression on tumors varies by tumor type and patient. In this example, another ABN was produced using the tumor-penetrating ligand, iRGD (CRGDKGPDC; SEQ ID NO: 2). This peptide engages the same active-internalization pathway as LyP-1, but binds to αvβ3 or αvβ5 integrin heterodimers as its primary receptor, which are ectopically overexpressed in a large subset of cancers (FIG. 12A). The tumor-targeting peptides iRGD and LyP-1 were bound to ABNs and administered to an immunocompetent mouse model of colorectal liver metastasis (CLM), induced via an intrasplenic injection of p32-negative, integrin-positive and NRP-1-positive MC-26 cells (FIG. 12B-12C and FIGS. 13A-13C). MC-26 cells are derived from a mouse colorectal cancer line and secrete MMP9, which can be detected in the tumor nodules as well as in the tumor-adjacent liver, but not in non-tumor-bearing liver lobes (FIG. 12D). The stoichiometries for substrate conjugation on iRGD ABNs were similar to those used on the LyP-1 ABNs (FIG. 14A). […] This was consistent in the model of orthotopic ovarian cancer (FIG. 15D).

[4] = test system: matrix-metalloprotease; test: Cleavage of MMP9 substrate by OVCAR-8 conditioned media with and without MMP inhibitor; type: biochemical, human
[5] = test system: OVCAR-8 tumor nodules; test: Blood biomarker HE4 ELISA in orthotopic OVCAR-8 ovarian cancer model; type: in vivo, mouse
Protocol: The ability of ABNs to: (1) detect low-burden ovarian cancer and (2) outperform a clinical blood biomarker were tested. Detection by ABNs was compared to the blood biomarker HE4, as OVCAR-8 cells produce relatively high levels of this protein, on a par with four other human ovarian cancer cell lines (FIGS. 10B-10C). […] This threshold of sensitivity is critical, as clinically approved imaging modalities can typically only resolve individual tumor nodules greater than 5 mm in diameter. Additionally, it has been estimated that to decrease serous ovarian cancer mortality by 50% with an annual screen, a test would have to be sensitive to tumors of <5 mm. […] It was confirmed that the tumor nodule retrieval methodology described in this example accounted for greater than 80% of the tumor burden by measuring luminescence pre- and post-resection (FIGS. 11D-11G). The tumor burden remaining can be attributed to uncollected macroscopic and microscopic lesions.
To generate an orthotopic model of human ovarian cancer, three- to four-week-old female NCr nude mice were injected intraperitoneally with 2×10^6 OVCAR-8 cells expressing firefly luciferase. Tumor burden was measured via luminescence using an in vivo imaging system (IVIS, PerkinElmer). Each mouse was sacrificed and the tumors were retrieved from all organs in the peritoneal space. Tumors were collected on a glass slide and scanned on a LI-COR Odyssey with 169 μm resolution. Widths and lengths were measured with ImageJ and tumor volume was calculated as described above for subcutaneous tumors. The reported tumor volumes for each group are the average of ten mice. Before tumor induction, urine measurements were performed by injecting mice with 0.5 μM LyP1 ABNs. Approximately 200 μl of blood was collected and spiked with EDTA to a final concentration of 5 mM, and the blood cells were pelleted. Plasma was stored at −20° C. prior to HE4 quantification. HE4 levels were measured using the HE4 quantikine ELISA kit.

T1 sequence (P14780 94-707): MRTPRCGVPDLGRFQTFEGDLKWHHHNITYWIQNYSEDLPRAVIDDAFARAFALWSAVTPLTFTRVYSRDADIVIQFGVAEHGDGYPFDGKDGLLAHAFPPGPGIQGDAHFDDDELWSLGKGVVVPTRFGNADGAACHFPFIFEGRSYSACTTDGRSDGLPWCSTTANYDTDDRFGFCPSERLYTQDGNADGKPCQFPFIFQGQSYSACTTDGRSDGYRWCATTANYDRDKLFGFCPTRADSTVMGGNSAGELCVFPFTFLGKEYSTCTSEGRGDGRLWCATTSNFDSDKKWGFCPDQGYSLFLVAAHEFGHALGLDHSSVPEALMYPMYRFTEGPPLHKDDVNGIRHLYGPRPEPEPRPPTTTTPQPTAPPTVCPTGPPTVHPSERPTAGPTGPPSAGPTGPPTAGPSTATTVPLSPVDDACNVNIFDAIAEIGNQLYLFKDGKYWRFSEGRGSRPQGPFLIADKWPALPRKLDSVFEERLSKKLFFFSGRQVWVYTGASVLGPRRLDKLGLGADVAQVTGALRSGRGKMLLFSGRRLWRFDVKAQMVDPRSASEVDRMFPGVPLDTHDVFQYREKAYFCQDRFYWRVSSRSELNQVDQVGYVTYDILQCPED
mouse MMP9, sequence (P41245 108-730): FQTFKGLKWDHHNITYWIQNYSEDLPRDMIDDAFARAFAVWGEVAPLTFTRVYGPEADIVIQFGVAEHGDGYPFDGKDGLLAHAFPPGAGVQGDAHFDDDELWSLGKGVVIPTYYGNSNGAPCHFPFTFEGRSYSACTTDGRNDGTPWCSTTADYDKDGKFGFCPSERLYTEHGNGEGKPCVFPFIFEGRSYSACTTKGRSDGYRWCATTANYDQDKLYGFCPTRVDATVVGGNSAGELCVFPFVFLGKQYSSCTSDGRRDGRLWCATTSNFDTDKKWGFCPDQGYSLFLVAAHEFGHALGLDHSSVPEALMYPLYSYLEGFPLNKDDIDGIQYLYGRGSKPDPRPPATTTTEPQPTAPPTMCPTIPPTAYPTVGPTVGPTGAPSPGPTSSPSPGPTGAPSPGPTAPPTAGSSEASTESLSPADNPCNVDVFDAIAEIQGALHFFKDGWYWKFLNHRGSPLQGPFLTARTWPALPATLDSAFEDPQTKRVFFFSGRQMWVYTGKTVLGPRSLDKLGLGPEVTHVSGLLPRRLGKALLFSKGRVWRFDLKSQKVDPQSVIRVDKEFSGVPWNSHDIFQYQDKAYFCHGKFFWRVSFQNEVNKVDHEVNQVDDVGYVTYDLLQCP

cleavage velocity (V) by MMP9 ([1]; longest presentation distance (tether length)): 0.96 nM/s | cleavage velocity (V) by MMP9 ([1]; shortest presentation distance (tether length)): 0.24 nM/s | cleavage velocity (V) by thrombin ([2]; longest presentation distance): 0.01 nM/s | cleavage velocity (V) by thrombin ([2]; shortest presentation distance): 0.29 nM/s | cleavage by mouse MMP9 [3]: readily able to cleave
Molecule: 5-FAM-GGPLGVRGKK(CPQ2)-PEG2-C (5FAM-GGPLGVRGKK(CPQ2)[PEG2′]C) [MMP9 peptide substrate, MMP9 peptide substrate (PLGVRGK) flanked by a FRET pair, presented on nanoparticle surface at varying PEG tether lengths]

Molecule: CNC(=O)[C@@H](NC(=O)[C@H](CC(C)C)[C@H](O)C(=O)NO)C(C)(C)C [marimistat]
inhibition of cleavage of MMP9 substrate by OVCAR-8 conditioned media [4]: can be inhibited | inhibition of cleavage of MMP9 substrate by OVCAR-8 conditioned media ([4]; listed as Marimistat): can inhibit a significant portion of the cleavage

Molecule: 5-FAM-GGfPRSGGGK(CPQ2)-PEG2-C [thrombin-selective substrate]
optimal presentation length for thrombin cleavage ([2]; varying linker lengths on nanoparticle surface): optimally presented at an intermediate length

B1: HE4: human epididymis protein, clinical blood biomarker used as comparator diagnostic, measured by ELISA (protein, UniProt Q14508 31-124, looked up)
WAP four-disulfide core …: EKTGVCPELQADQNCTQECVSDSECADNLKCCSAGCATFCSLPNDKEGSCPQVNINFPQLGLCRDQCQVDSQCPGQMKCCRNGCGKVSCVTPNF
limit of detection (tumor volume) ([5]; 3 weeks): 88 mm^3 | ROC-AUC ([5]; three weeks): 0.93 | ROC-AUC ([5]; two weeks): 0.51
